Assay results as given in publication PMC7059403 (Journal of the American Chemical Society, 2020).

Experiments:
[1] = biological target: T1, ClxD (H16_B0216), Clx decarboxylase (Cupriavidus necator, UniProt Q0K4Q7); assay: in vitro decarboxylation assay; assay type: biochemical; settings: with 2-carboxy-L-lyxonate; catalytic NAD+, regenerated in the reaction
T1 sequence (Q0K4Q7 1-338): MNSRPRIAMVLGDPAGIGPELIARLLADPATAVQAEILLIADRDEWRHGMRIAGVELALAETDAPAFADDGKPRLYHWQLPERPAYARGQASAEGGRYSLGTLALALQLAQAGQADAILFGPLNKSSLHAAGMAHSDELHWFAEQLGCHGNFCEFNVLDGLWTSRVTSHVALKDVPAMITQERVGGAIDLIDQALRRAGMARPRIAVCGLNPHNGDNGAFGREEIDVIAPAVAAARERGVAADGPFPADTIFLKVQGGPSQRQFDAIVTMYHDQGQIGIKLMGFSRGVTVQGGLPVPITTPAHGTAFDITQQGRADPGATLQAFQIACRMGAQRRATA

[2] = biological target: T2, KdlD, Kdl dehydratase (Cupriavidus necator, UniProt Q0K4R0); assay: in vitro activity assay; assay type: biochemical
T2 sequence (Q0K4R0 1-310): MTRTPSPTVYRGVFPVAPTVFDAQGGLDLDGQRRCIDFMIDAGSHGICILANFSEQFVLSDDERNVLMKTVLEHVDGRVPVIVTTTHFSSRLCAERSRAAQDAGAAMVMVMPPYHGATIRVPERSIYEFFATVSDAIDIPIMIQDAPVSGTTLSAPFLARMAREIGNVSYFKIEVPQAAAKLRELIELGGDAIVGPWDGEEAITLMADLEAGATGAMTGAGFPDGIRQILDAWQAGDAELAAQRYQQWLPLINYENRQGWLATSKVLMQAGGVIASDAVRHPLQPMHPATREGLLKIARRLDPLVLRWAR

[3] = biological target: T3, KgsD (H16_B0212), Kgs dehydrogenase (Cupriavidus necator, UniProt Q0K4R1); assay: in vitro activity assay; assay type: biochemical
T3 sequence (Q0K4R1 1-527): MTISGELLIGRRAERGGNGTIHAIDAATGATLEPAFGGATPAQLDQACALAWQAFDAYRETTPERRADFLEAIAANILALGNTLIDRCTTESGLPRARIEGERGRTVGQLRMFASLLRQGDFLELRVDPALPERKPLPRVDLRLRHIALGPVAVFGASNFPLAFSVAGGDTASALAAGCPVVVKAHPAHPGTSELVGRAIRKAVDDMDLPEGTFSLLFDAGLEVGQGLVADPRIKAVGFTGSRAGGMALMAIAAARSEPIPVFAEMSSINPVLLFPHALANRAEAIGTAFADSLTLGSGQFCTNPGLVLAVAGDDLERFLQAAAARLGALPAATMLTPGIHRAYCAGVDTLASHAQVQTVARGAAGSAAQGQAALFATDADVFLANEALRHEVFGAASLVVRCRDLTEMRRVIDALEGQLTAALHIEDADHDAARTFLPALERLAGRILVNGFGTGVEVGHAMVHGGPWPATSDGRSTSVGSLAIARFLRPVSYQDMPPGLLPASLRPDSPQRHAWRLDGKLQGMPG

[4] = biological target: T4, LyxD (H16_B0217), L-lyxonate dehydratase (Cupriavidus necator, UniProt Q0K4Q6); assay: in vitro activity assay; assay type: biochemical
T4 sequence (Q0K4Q6 1-391): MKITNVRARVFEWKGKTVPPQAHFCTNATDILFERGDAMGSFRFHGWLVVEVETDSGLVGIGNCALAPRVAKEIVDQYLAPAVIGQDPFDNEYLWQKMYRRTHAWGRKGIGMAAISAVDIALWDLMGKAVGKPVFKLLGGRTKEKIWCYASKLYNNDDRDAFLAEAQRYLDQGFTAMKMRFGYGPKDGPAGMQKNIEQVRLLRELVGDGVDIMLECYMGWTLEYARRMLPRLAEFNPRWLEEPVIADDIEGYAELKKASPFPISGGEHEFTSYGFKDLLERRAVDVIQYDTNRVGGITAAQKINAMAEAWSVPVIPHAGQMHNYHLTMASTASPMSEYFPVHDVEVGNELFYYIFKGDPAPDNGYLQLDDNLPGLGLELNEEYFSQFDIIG

[5] = substrate: O=C1O[C@H]([C@@H](O)CO)C(=O)C1=O; assay: in vitro enzyme kinetics; assay type: biochemical, Cupriavidus necator
[6] = substrate: O=C(O)C(=O)C(=O)[C@H](O)[C@@H](O)CO; assay: in vitro enzyme kinetics; assay type: biochemical, Cupriavidus necator
[7] = substrate: O=C(O)C(O)(C(=O)O)[C@H](O)[C@@H](O)CO; assay: in vitro enzyme kinetics; assay type: biochemical, Cupriavidus necator; settings: NAD+ as catalytic cofactor

For `NC(=O)c1ccc[n+]([C@@H]2O[C@H](COP(=O)(O)OP(=O)(O)OC[C@H]3O[C@@H](n4cnc5c(N)ncnc54)[C@H](O)[C@@H]3O)[C@@H](O)[C@H]2O)c1` [NAD^+], the “in vitro decarboxylation assay; stopped-flow absorbance at 340 nm” value [1] was “generates L-lyxonate (Figure 1C), even with sub-stoichiometric amounts of NAD^+”.

`O=C(O)C(=O)C[C@@H](O)CO` [2-keto-3-deoxy-L-lyxonate] was tested, and the “in vitro activity assay (dehydration)” value [2] was “heterologously expressed and display the predicted in vitro activities”.

In the case of `O=CCCC(=O)C(=O)O` [α-ketoglutarate semialdehyde], the “in vitro activity assay (oxidation)” value [3] is reported as “heterologously expressed and display the predicted in vitro activities”.

`O=C(O)[C@H](O)[C@H](O)[C@@H](O)CO` [L-lyxonate] was tested, and the “in vitro activity assay (dehydration)” value [4] was “heterologously expressed and display the predicted in vitro activities”.

B1: DhaL (H16_A3012), DHA lactonase (Cupriavidus necator H16) (protein)
chain: MDTVRIFDERARELPLAGERLEQLACRATWSEGPVWLPDEDAVLWSDIPNDRILRWSAADGMSVWRTGAGFTNGHALEADGSLLHCSHGKRAIVRTHRSGARLGEDELVVSHYQGRRLNSPNDIVVKRDGTLWFTDPPYGILSDREGHRADPELRHNYVFRYDPAVGALEVASDLIEEPNGLAFSPDEDVLYVSDTSAALRDDGHHHIVAFDVVAGRVLANPRVFAVIAPGLPDGFRVDRRGWLFTSSASGVQVFHPDGTRLAHIPVPEKVGNLVFGGAEGDALFIAASTSLYRLRLGQRLT
B1 was tested, and the Km [5] was 490 ± 70 µM and the kcat [5] was 8.0 ± 0.6 s−^1.

B2: DkgM (H16_B1217), DKG mutase (Cupriavidus necator H16) (protein)
chain: MESQWTAVLVEKFGHSFSAYELDGGERRFSVQLPDYPHEFVVDRERLCGYVGHYGVQTFAHAGDGGAAVIAVDLMRGAVRARLDCSPYHRIHGLQIDRQGRVYALSERDNMLVVFEAPLEHPVPDRAVPAGGVKSHLFVLSADGERAYVTNLLSHTVTLVHPYDATRAPRAAYAGRRPEGCCLSRDEAALYVASRDDHSLTRLDARTMEAVRTVPTGEDPTRIYWSPDDRLFVLNYGERSIRVFDPDTLAETGRVDTGARPIALAFHPADPSRAYIALNDHTVGQLDLPGLALRHAFTTGKEPDGLAILALPTR
Molecule B2 has a Km [6] of 81 ± 7 µM and a kcat [6] of 0.6 ± 0.1 s−^1.

B3: ClxD (H16_B0216), Clx decarboxylase (Cupriavidus necator H16) (protein)
chain: T1 sequence (Q0K4Q7 1-338)
B3 was tested, and the Km [7] was 800 ± 400 µM and the kcat [7] was 0.33 ± 0.08 s−^1.
